Key:
WT JR-FL gp120 (HIV-1) = test: ELISA, antigen-coated wells
[1] = target: HIV-1 MGRM-C-028 Env (pseudovirus) (HIV-1); test: cell-based or functional assay
[2] = target: HIV-1 APV6 Env (pseudovirus) (HIV-1); test: cell-based or functional assay
[3] = target: HIV-1 MGRM-C-026 Env (pseudovirus) (HIV-1); test: cell-based or functional assay
[4] = target: HIV-1 Env of pseudovirus isolate MGRM-G-001 (HIV-1); test: cell-based or functional assay
[5] = target: HIV-1 Env of pseudovirus isolate MGRM-G-016 (HIV-1); test: cell-based or functional assay
[6] = target: HIV-1 Env of pseudovirus isolate MGRM-G-027 (HIV-1); test: cell-based or functional assay
[7] = target: HIV-1 Env of pseudovirus isolate MGRM-G-015 (HIV-1); test: cell-based or functional assay
[8] = target: HIV-1 JRCSF Env (pseudovirus) (HIV-1) (UniProt P20871); test: cell-based or functional assay
[9] = target: envelope of aMLV pseudovirus (negative control); test: cell-based or functional assay
[10] = target: HIV-1 93IN905 Env (pseudovirus) (HIV-1); test: cell-based or functional assay
[11] = target: HIV-1 92RW020 Env (pseudovirus) (HIV-1); test: cell-based or functional assay
[12] = target: HIV-1 92UG024 Env (pseudovirus) (HIV-1); test: cell-based or functional assay
[13] = target: HIV-1 Env of pseudovirus isolate MGRM-G-006 (HIV-1); test: cell-based or functional assay
[14] = target: HIV-1 92UG005 Env (pseudovirus) (HIV-1); test: cell-based or functional assay
[15] = target: HIV-1 Env of pseudovirus isolate MGRM-G-017 (HIV-1); test: cell-based or functional assay
[16] = target: HIV-1 Env of pseudovirus isolate MGRM-G-014 (HIV-1); test: cell-based or functional assay
[17] = target: HIV-1 Env of pseudovirus isolate MGRM-G-009 (HIV-1); test: cell-based or functional assay
[18] = target: HIV-1 94UG103 Env (pseudovirus) (HIV-1); test: cell-based or functional assay
[19] = target: HIV-1 Env of pseudovirus isolate MGRM-G-013 (HIV-1); test: cell-based or functional assay
[20] = target: HIV-1 MGRM-D-018 Env (pseudovirus) (HIV-1); test: cell-based or functional assay
[21] = target: HIV-1 92TH021 Env (pseudovirus) (HIV-1); test: cell-based or functional assay
[22] = target: HIV-1 Env of pseudovirus isolate MGRM-G-004 (HIV-1); test: cell-based or functional assay
[23] = target: HIV-1 CMU02 Env (pseudovirus) (HIV-1); test: cell-based or functional assay
[24] = target: HIV-1 Env of pseudovirus isolate MGRM-G-019 (HIV-1); test: cell-based or functional assay
[25] = target: HIV-1 NL43 Env (pseudovirus) (HIV-1); test: cell-based or functional assay
[26] = target: HIV-1 MGRM-A-010 Env (pseudovirus) (HIV-1); test: cell-based or functional assay
[27] = target: HIV-1 Env of pseudovirus isolate MGRM-G-011 (HIV-1); test: cell-based or functional assay
[28] = target: HIV-1 MGRM-C-027 Env (pseudovirus) (HIV-1); test: cell-based or functional assay

5147_N06 (PGT-130) (antibody)
EC50 (WT JR-FL gp120 (HIV-1)): 0.2 µg/mL
Neutralization by PGT-130, IC50 [1]: > 10 µg/mL
Neutralization by PGT-130, IC80 [1]: > 10 µg/mL
Neutralization by PGT-130, IC90 [1]: > 10 µg/mL
Neutralization by PGT-130, IC95 [1]: > 10 µg/mL
neutralization IC50 (pseudovirus) [1]: > 10 µg/mL
Neutralization by PGT-130, IC50 [2]: > 10 µg/mL
Neutralization by PGT-130, IC80 [2]: > 10 µg/mL
Neutralization by PGT-130, IC90 [2]: > 10 µg/mL
Neutralization by PGT-130, IC95 [2]: > 10 µg/mL
neutralization IC50 (pseudovirus) [2]: > 10 µg/mL
Neutralization by PGT-130, IC50 [3]: 0.0173 µg/mL
Neutralization by PGT-130, IC80 [3]: 0.263 µg/mL
Neutralization by PGT-130, IC90 [3]: 1.32 µg/mL
Neutralization by PGT-130, IC95 [3]: 6.13 µg/mL
neutralization IC50 (pseudovirus) [3]: 0.0173 µg/mL
IC50 (µg/mL), pseudovirus neutralization [4]: 0.0198 µg/mL
IC50 (µg/mL), pseudovirus neutralization [5]: > 50 µg/mL
IC50 (µg/mL), pseudovirus neutralization [6]: 4.14 µg/mL
IC50 (µg/mL), pseudovirus neutralization [7]: > 50 µg/mL
Neutralization by PGT-130, IC50 [8]: 0.0089 µg/mL
Neutralization by PGT-130, IC80 [8]: 0.0317 µg/mL
Neutralization by PGT-130, IC90 [8]: 0.0669 µg/mL
Neutralization by PGT-130, IC95 [8]: 0.134 µg/mL
neutralization IC50 (pseudovirus) [8]: 0.0089 µg/mL
IC50 (µg/mL), pseudovirus neutralization [9]: > 50 µg/mL
Neutralization by PGT-130, IC50 [10]: 0.0182 µg/mL
Neutralization by PGT-130, IC80 [10]: 0.272 µg/mL
Neutralization by PGT-130, IC90 [10]: 1.31 µg/mL
Neutralization by PGT-130, IC95 [10]: 5.48 µg/mL
neutralization IC50 (pseudovirus) [10]: 0.0182 µg/mL
Neutralization by PGT-130, IC50 [11]: 0.014 µg/mL
Neutralization by PGT-130, IC80 [11]: 0.508 µg/mL
Neutralization by PGT-130, IC90 [11]: 3.68 µg/mL
Neutralization by PGT-130, IC95 [11]: > 10 µg/mL
neutralization IC50 (pseudovirus) [11]: 0.014 µg/mL
Neutralization by PGT-130, IC50 [12]: > 10 µg/mL
Neutralization by PGT-130, IC80 [12]: > 10 µg/mL
Neutralization by PGT-130, IC90 [12]: > 10 µg/mL
Neutralization by PGT-130, IC95 [12]: > 10 µg/mL
neutralization IC50 (pseudovirus) [12]: > 10 µg/mL
IC50 (µg/mL), pseudovirus neutralization [13]: > 50 µg/mL
Neutralization by PGT-130, IC50 [14]: 0.474 µg/mL
Neutralization by PGT-130, IC80 [14]: > 10 µg/mL
Neutralization by PGT-130, IC90 [14]: > 10 µg/mL
Neutralization by PGT-130, IC95 [14]: > 10 µg/mL
neutralization IC50 (pseudovirus) [14]: 0.474 µg/mL
IC50 (µg/mL), pseudovirus neutralization [15]: > 50 µg/mL
IC50 (µg/mL), pseudovirus neutralization [16]: 2.23 µg/mL
IC50 (µg/mL), pseudovirus neutralization [17]: > 50 µg/mL
Neutralization by PGT-130, IC50 [18]: 0.635 µg/mL
Neutralization by PGT-130, IC80 [18]: > 10 µg/mL
Neutralization by PGT-130, IC90 [18]: > 10 µg/mL
Neutralization by PGT-130, IC95 [18]: > 10 µg/mL
neutralization IC50 (pseudovirus) [18]: 0.635 µg/mL
IC50 (µg/mL), pseudovirus neutralization [19]: > 50 µg/mL
Neutralization by PGT-130, IC50 [20]: 0.0378 µg/mL
Neutralization by PGT-130, IC80 [20]: 0.289 µg/mL
Neutralization by PGT-130, IC90 [20]: 2.31 µg/mL
Neutralization by PGT-130, IC95 [20]: > 10 µg/mL
neutralization IC50 (pseudovirus) [20]: 0.0378 µg/mL
Neutralization by PGT-130, IC50 [21]: 0.0082 µg/mL
Neutralization by PGT-130, IC80 [21]: 0.0261 µg/mL
Neutralization by PGT-130, IC90 [21]: 0.0513 µg/mL
Neutralization by PGT-130, IC95 [21]: 0.0963 µg/mL
neutralization IC50 (pseudovirus) [21]: 0.0082 µg/mL
IC50 (µg/mL), pseudovirus neutralization [22]: > 50 µg/mL
Neutralization by PGT-130, IC50 [23]: > 10 µg/mL
Neutralization by PGT-130, IC80 [23]: > 10 µg/mL
Neutralization by PGT-130, IC90 [23]: > 10 µg/mL
Neutralization by PGT-130, IC95 [23]: > 10 µg/mL
neutralization IC50 (pseudovirus) [23]: > 10 µg/mL
IC50 (µg/mL), pseudovirus neutralization [24]: 27.9 µg/mL
Neutralization by PGT-130, IC50 [25]: > 10 µg/mL
Neutralization by PGT-130, IC80 [25]: > 10 µg/mL
Neutralization by PGT-130, IC90 [25]: > 10 µg/mL
Neutralization by PGT-130, IC95 [25]: > 10 µg/mL
neutralization IC50 (pseudovirus) [25]: > 10 µg/mL
Neutralization by PGT-130, IC50 [26]: 0.0054 µg/mL
Neutralization by PGT-130, IC80 [26]: 0.0251 µg/mL
Neutralization by PGT-130, IC90 [26]: 0.0643 µg/mL
Neutralization by PGT-130, IC95 [26]: 0.164 µg/mL
neutralization IC50 (pseudovirus) [26]: 0.0054 µg/mL
IC50 (µg/mL), pseudovirus neutralization [27]: > 50 µg/mL
Neutralization by PGT-130, IC50 [28]: 0.0052 µg/mL
Neutralization by PGT-130, IC80 [28]: 0.0318 µg/mL
Neutralization by PGT-130, IC90 [28]: 0.106 µg/mL
Neutralization by PGT-130, IC95 [28]: 0.464 µg/mL
neutralization IC50 (pseudovirus) [28]: 0.0052 µg/mL

Source: patent US20250320281A1
